Measured values from US20060084097.

T1: CysO3H-peptide
T1 chain: CHGSGAWL

T2: 8-residue Asp-peptide (DHGSGAWL)
T2 chain: CHSGAWL

T3: 8-residue Cys-peptide (CHGSGAWL)
T3 chain: CHGSGAWL

B1: mouse ATE1-1 R-transferase C-terminally tagged with the polyoma and His6 epitopes (protein)
chain: MASWSAPSPSLVEYFEGQTSFQCGYCKNKLGSRSYGMWAHSMTVQDYQDLIDRGWRRSGKYVYKPVMDQTCCPQYTIRCHPLQFQPSKSHKKVLKKMLKFLAKGEISKGNCEDEPMDSTVEDAVDGDFALINKLDIKCDLKTLSDLKGSIESEEKEKEKSIKKEGSKEFIHPQSIEEKLGSGEPSHPIKVHIGPKPGKGADLSKPPCRKAREMRKERQRLKRMQQASAAASEAQGQPVCLLPKAKSNQPKSLEDLIFQSLPENASHKLEVRVVRSSPPSPQFRATFQESYQVYKRYQMVVHKDPPDKPTVSQFTRFLCSSPLEAEHPADGPECGYGSFHQQYWLDGKIIAVGVLDILPYCVSSVYLYYDPDYSFLSLGVYSALREIAFTRQLHEKTSQLSYYYMGFYIHSCPKMRYKGQYRPSDLLCPETYVWVPIEQCLPSLDNSKYCRFNQDPEAEDEGRSKELDRLRVFHRRSAMPYGVYKNHQEDPSEEAGVLEYANLVGQKCSERMLLFRHHHHHHH
B2: S. cerevisiae ATE1 Arg-tRNA-protein transferase C-terminally tagged with His6 (protein)
chain: MSDRFVIWAPSMHNEPAAKCGYCHGNKGGNMDQLFALDSWAHRYMNKMDVVKIENCTIGSFVEHMDVATYDRMCNMGFRRSGKFLYKVDPLRNCCRLYTIRTAPQELNMTKELKKCISRFATRITSEDYCPAAVASSDFVGKIVNAEMNSKTFYTRFEPALYSEEKYHLFVKYQEKVHQDYNNSPKSFKRFLCDTPFGPEAVLGTQESWEQLNNWQRMKPGEKLKHMGPVHECYYYEGKLIAITVSDILPSGISSVYFIWDPDYSKWSLGKLSALRDLAIIQRTNLQYYYLGYYIEDCPKMNYKANYGAEVLDVCHSKYIPLKPIQDMISRGKLFVIGEEETKVTKELYLVDSETGRGEGFPTDNVVKYKNIAEEIYGVGGCAFKSANESALELKELYGIPYEEEDLDTIYHLKEHNGHAPNGIPNVVPGLLPLWELLDIMQSGKITDLEGRLFLFEIETEGIRPLINFYSEPPNVKKRICDVIRLFGFETCMKAVILYSEQMHHHHHH

Key:
CysO3H-peptide = molecular target: T1, CysO3H-peptide
[1] = molecular target: T2, 8-residue Asp-peptide (DHGSGAWL)
[2] = molecular target: T3, 8-residue Cys-peptide (CHGSGAWL)
[3] = molecular target: Asp-RGS4 (X-RGS4-flag, X=Asp)
[4] = molecular target: Cys-RGS4 (X-RGS4-flag, X=Cys)
[5] = molecular target: Val-RGS4 (X-RGS4-flag, X=Val)

Row | Protein | arginylation of peptide (capillary electrophoresis, MALDI-TOF MS), pH 7.5 (CysO3H-peptide) | arginylation of peptide (capillary electrophoresis, MALDI-TOF MS), pH 7.5 [1] | arginylation of peptide (capillary electrophoresis), pH 9.0 [2] | arginylation of peptide (capillary electrophoresis, MALDI-TOF MS), pH 7.5 [2] | 3H-arginine conjugation (SDS-PAGE and fluorography) [3] | 3H-arginine conjugation (SDS-PAGE and fluorography) [4] | 3H-arginine conjugation (SDS-PAGE and fluorography) [5] | arginylation of peptide (capillary electrophoresis) (CysO3H-peptide) | arginylation of peptide (capillary electrophoresis) [1] | arginylation of peptide (capillary electrophoresis) [2]
1 | B1 | the Asp-peptide and the CysO3H-peptide were efficiently arginylated | the Asp-peptide and the CysO3H-peptide were efficiently arginylated | arginylation of Cys-peptide was undetectable even at pH 9.0, in contrast to arginylation of CysO3H-peptide and Asp-peptide | the Cys-peptide was not arginylated | Asp-RGS4 was efficiently arginylated irrespective of NO pretreatment | a virtually complete dependence of the in vitro arginylation of Cys-RGS4 on its prior exposure to a donor of NO | Val-RGS4 was not arginylated | – | – | –
2 | B2 | – | – | – | – | – | – | – | Yeast R-transferase efficiently arginylated CysO3H-peptide, but not Cys-peptide | The same results were obtained when mouse ATE1-1 was replaced, in the above assays, with purified S. cerevisiae ATE1 R-transferase | Yeast R-transferase efficiently arginylated CysO3H-peptide, but not Cys-peptide
